The results in this text go back to patent US20240270821A1, “GIP/GLP1/GCG TRI-RECEPTOR AGONISTS AND USES THEREOF” (priority 2023, published 2024).

Common to all, as to experiment: cell-based or functional assay
In test [1] the target is T1, human GIP receptor (human) (UniProt P48546).
T1 sequence (looked up): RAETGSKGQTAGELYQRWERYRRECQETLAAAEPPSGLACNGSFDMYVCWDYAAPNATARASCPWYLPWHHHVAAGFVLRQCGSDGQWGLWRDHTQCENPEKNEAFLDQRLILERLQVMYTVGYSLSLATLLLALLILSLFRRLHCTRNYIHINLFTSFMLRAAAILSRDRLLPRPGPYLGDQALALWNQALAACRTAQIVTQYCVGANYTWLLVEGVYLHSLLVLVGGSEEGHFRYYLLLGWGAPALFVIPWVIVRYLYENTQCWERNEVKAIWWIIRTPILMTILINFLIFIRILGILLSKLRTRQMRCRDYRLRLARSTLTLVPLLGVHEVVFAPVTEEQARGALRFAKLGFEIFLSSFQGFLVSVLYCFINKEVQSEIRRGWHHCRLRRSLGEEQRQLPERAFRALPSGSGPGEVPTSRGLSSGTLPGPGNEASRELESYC

For test [2], the target named is human GLP1-R (SNAP-GLP-1R expressed in HEK293 cells) (human) (UniProt P43220).
Chain of human GLP1-R (SNAP-GLP-1R expressed in HEK293 cells) (human) (P43220 24-463): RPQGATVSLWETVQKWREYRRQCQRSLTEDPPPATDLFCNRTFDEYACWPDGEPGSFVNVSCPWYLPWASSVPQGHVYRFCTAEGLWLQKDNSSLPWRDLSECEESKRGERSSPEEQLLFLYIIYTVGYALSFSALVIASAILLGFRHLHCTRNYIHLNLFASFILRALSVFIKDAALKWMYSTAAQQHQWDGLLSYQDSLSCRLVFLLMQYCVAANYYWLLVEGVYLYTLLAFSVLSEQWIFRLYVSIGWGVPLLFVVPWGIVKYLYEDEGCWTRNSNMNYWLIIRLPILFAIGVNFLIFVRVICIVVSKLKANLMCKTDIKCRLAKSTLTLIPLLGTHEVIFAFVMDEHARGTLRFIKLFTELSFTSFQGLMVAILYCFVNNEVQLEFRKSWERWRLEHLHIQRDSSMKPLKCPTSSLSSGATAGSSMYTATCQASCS
For test [3], the target named is human glucagon receptor (human) (UniProt P47871).
Chain of human glucagon receptor (human) (P47871 26-477): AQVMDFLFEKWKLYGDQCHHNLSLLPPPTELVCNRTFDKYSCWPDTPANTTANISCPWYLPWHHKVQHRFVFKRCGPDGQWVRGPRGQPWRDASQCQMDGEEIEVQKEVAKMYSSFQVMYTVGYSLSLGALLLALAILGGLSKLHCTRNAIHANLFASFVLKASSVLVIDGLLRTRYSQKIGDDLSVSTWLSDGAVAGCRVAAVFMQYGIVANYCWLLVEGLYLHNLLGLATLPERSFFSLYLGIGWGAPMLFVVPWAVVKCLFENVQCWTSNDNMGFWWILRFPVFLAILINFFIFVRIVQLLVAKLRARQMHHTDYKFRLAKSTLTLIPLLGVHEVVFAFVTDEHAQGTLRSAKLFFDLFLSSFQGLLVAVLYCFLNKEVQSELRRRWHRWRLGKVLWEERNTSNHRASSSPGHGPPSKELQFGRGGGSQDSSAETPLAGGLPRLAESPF
The target in a further test is hGLP-1R (Homo sapiens, UniProt P43220).
Chain of hGLP-1R (P43220 24-463): as the sequence (P43220 24-463) above

Residue numbers refer to the chain shown, from its start.

B1: Example 45 (peptide)
chain: YXQGTFTSDFSKXLDKKAQXAFIEYLLEXGPSSGAPPPSGS
modifications: Aib, αMeL, acylated Lys, C-terminal amide; synthetic construct; SITE 2: note = 2-Aminoisobutyric Acid; SITE 13: note = alpha-methyl-leucine; SITE 17: note = Lysine is chemically modified through conjugation of the epsilon-amino group of the Lysine side chain with (2-[2-(2-Amino-ethoxy)-ethoxy]-acetyl)-(gamma-Glu)-CO-(CH2) 18-CO2H; SITE 20: n
Consider B1, for which, in test [1], the Relative cAMP EC50 is 0.112 nM and the cAMP Rel EC50 (in the presence of 1% HSA) came out at 33.4 nM. For the same molecule, in test [2], the GLP1R Internalization EC50 turned out to be 52.6 nM and the Internalization % TOP was 62.1%. In test [3], the Relative cAMP EC50 is 2.08 nM and the cAMP Rel EC50 (in the presence of 1% HSA) amounted to 879 nM. In the test with hGLP-1R, the Relative cAMP EC50 worked out at 1.52 nM and the cAMP Rel EC50 (in the presence of 1% HSA) is 493 nM.

B2: Example 71 (peptide)
chain: B1 chain with K12X, G40E, S41G
modifications: synthetic construct; SITE 2: note = 2-Aminoisobutyric Acid; SITE 12: note = L-ornithine; SITE 13: note = alpha-methyl-leucine; SITE 17: note = Lysine is chemically modified through conjugation of the epsilon-amino group of the Lysine side chain with (2-[2-(2-Amino-ethoxy)-ethoxy]-acetyl)2-(gamma-Glu)
On to B2, for which, in test [1], the Relative cAMP EC50 worked out at 0.105 nM and the cAMP Rel EC50, nM (in the presence of 1% HSA) was determined as 48.1 nM. Further, in test [2], the GLP1R Internalization EC50 is 58.8 nM and the Internalization % TOP was 68.6%. Further, in test [3], the Relative cAMP EC50 was 8.74 nM and the cAMP Rel EC50, nM (in the presence of 1% HSA) came out at 2800 nM. Besides, in the test with hGLP-1R, the Relative cAMP EC50 stood at 3.12 nM and the cAMP Rel EC50, nM (in the presence of 1% HSA) worked out at 1010 nM.

B3: Example 46 (peptide)
chain: B1 chain with A35E, G40E, S41G
modifications: Aib, αMeL; acylated Lys; C-terminal amide; synthetic construct; SITE 2: note = 2-Aminoisobutyric Acid; SITE 13: note = alpha-methyl-leucine; SITE 17: note = Lysine is chemically modified through conjugation of the epsilon-amino group of the Lysine side chain with (2-[2-(2-Amino-ethoxy)-ethoxy]-acetyl)-(gamma-Glu)-CO-(CH2) 16-CO2H; SITE 20: n
B3: the Relative cAMP EC50 in test [1] is 0.0947 nM; in test [3] it was 1.53 nM; in the test with hGLP-1R, 4.04 nM. The cAMP Rel EC50 (in the presence of 1% HSA) in test [1] is 19.6 nM; in test [3] it was 393 nM; with hGLP-1R it was 601 nM. Besides, the GLP1R Internalization EC50 in test [2] amounted to 41 nM. Moreover, the Internalization % TOP in test [2] stood at 58.1%.

B4: Example 70 (peptide)
chain: B1 chain with K12X, S39G, G40E, S41G
modifications: synthetic construct; SITE 2: note = 2-Aminoisobutyric Acid; SITE 12: note = L-ornithine; SITE 13: note = alpha-methyl-leucine; SITE 17: note = Lysine is chemically modified through conjugation of the epsilon-amino group of the Lysine side chain with (2-[2-(2-Amino-ethoxy)-ethoxy]-acetyl)2-(gamma-Glu)
B4: the Relative cAMP EC50 in test [1] stood at 0.102 nM; in test [3], 6.04 nM; in the test with hGLP-1R it was 2.71 nM. The results for the cAMP Rel EC50, nM (in the presence of 1% HSA) (in test [1]; in test [3]; in the test with hGLP-1R) were 27.4 nM, 717 nM and 620 nM, respectively. Besides, in test [2], the GLP1R Internalization EC50 came to 60 nM. In addition, the Internalization % TOP in test [2] was found to be 61.3%.

B5: Example 50 (peptide)
chain: B1 chain with K12X, X29G, G40E, S41G
modifications: synthetic construct; SITE 2: note = 2-Aminoisobutyric Acid; SITE 12: note = L-ornithine; SITE 13: note = alpha-methyl-leucine; SITE 17: note = Lysine is chemically modified through conjugation of the epsilon-amino group of the Lysine side chain with (2-[2-(2-Amino-ethoxy)-ethoxy]-acetyl)-(gamma-Glu)
For B5, the results for the Relative cAMP EC50 (in test [1]; in test [3]; with hGLP-1R) were 0.29 nM, 4.25 nM and 4.65 nM, respectively. Moreover, the cAMP Rel EC50, nM (in the presence of 1% HSA) in test [1] worked out at 69.6 nM; in test [3], 1040 nM; with hGLP-1R, 1110 nM. The molecule also showed a GLP1R Internalization EC50 in test [2] of 30.1 nM. Moreover, the Internalization % TOP in test [2] was found to be 31.1%.

B6: Example 58 (peptide)
chain: B1 chain with X29G, G40E, S41G
modifications: synthetic construct; SITE 2: note = 2-Aminoisobutyric Acid; SITE 13: note = alpha-methyl-leucine; SITE 17: note = Lysine is chemically modified through conjugation of the epsilon-amino group of the Lysine side chain with (gamma-Glu)2-CO-(CH2)16-CO2H; SITE 20: note = 2-Aminoisobutyric Acid; SITE 41:
Take B6: the figures for the Relative cAMP EC50 (in test [1]; in test [3]; in the test with hGLP-1R) were 0.175 nM, 4.86 nM and 2.93 nM, respectively. In addition, the cAMP Rel EC50, nM (in the presence of 1% HSA) was determined as 3.75 nM in test [1], 115 nM in test [3] and 20.7 nM with hGLP-1R. The molecule further returned a GLP1R Internalization EC50 in test [2] of 56.2 nM. Moreover, in test [2], the Internalization % TOP stood at 78.1%.

B7: Example 51 (peptide)
chain: B1 chain with A21Q, X29G, G40E, S41G
modifications: synthetic construct; SITE 2: note = 2-Aminoisobutyric Acid; SITE 13: note = alpha-methyl-leucine; SITE 17: note = Lysine is chemically modified through conjugation of the epsilon-amino group of the Lysine side chain with (2-[2-(2-Amino-ethoxy)-ethoxy]-acetyl)-(gamma-Glu)-CO-(CH2) 16-CO2H; SITE 20: n
With B7, in test [1], the Relative cAMP EC50 stood at 0.421 nM and the cAMP Rel EC50, nM (in the presence of 1% HSA) was found to be 98.4 nM. In test [2], the GLP1R Internalization EC50 stood at 89.2 nM and the Internalization % TOP stood at 55.7%. In test [3], the Relative cAMP EC50 is 5.15 nM and the cAMP Rel EC50, nM (in the presence of 1% HSA) turned out to be 856 nM. For the same molecule, in the test with hGLP-1R, the Relative cAMP EC50 amounted to 5.8 nM and the cAMP Rel EC50, nM (in the presence of 1% HSA) is 1210 nM.

B8: Example 69 (peptide)
chain: B1 chain with K12X, A35E, S39G, G40E, S41G
modifications: synthetic construct; SITE 2: note = 2-Aminoisobutyric Acid; SITE 12: note = L-ornithine; SITE 13: note = alpha-methyl-leucine; SITE 17: note = Lysine is chemically modified through conjugation of the epsilon-amino group of the Lysine side chain with (2-[2-(2-Amino-ethoxy)-ethoxy]-acetyl)2-(gamma-Glu)
Turning to B8, in test [1], the Relative cAMP EC50 turned out to be 0.136 nM and the cAMP Rel EC50, nM (in the presence of 1% HSA) was 25.6 nM. In test [2], the GLP1R Internalization EC50 was determined as 71.9 nM and the Internalization % TOP worked out at 58.2%. Moreover, in test [3], the Relative cAMP EC50 is 4.75 nM and the cAMP Rel EC50, nM (in the presence of 1% HSA) turned out to be 387 nM. Besides, in the test with hGLP-1R, the Relative cAMP EC50 turned out to be 3.25 nM and the cAMP Rel EC50, nM (in the presence of 1% HSA) is 279 nM.
